# Data reported in patent JP2010189402A (dated 2010).
# Changes are numbered by the printed parent chain. Where “and” joins values, the source holds several entries; their conditions need not be identical. Equal entries are not always repeated.
# T1: ヒトCD20抗原 (human, UniProt P11836 1-297)
# T1 sequence (looked up): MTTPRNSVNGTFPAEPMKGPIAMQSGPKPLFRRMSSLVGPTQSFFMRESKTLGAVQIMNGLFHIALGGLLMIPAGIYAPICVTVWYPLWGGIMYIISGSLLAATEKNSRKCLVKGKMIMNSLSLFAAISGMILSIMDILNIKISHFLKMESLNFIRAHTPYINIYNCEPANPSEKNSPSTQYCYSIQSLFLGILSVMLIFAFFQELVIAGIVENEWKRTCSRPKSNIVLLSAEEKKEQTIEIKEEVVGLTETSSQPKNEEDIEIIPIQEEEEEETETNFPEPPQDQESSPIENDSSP
# B1: 抗CD20キメラ抗体 1k0924 (antibody, V domains shown)
# VH: QVQLQQPGAELVKPGASVKMSCKASGYTFTSYNIHWVKQTPGQGLEWIGAIYPGNGDTSYNQKFKGKATLTSDKSSSTAYMQLSSLTSEDSAVYYCARMSTMITGFDYWGQGTTLTVSS
# VL: QIVLSQSPAILSASPGEKVTMTCRASSSVSYMHWYQQRPGSSPKPWIYATSNLASGVPARFSGSGSGTSYYFTISRVEAEDAATYYCQQWNSNPPTHGGGTKLEIK
# B2: 抗CD20キメラ抗体 1k1422 (antibody, V domains shown)
# VH: QVQLQQPGAELVKPGASVKMSCRASGYTFTNYNMHWIKQTPGQGLEWIGAIYPGSGDTSYNRKFKGKATLTADTSSSTAYMQFSSLTSADSAVYYCARFTYYYGGTYGAMDYWGQGTSVTVSL
# VL: QIVLTQSPPIMSASLGEEITLTCSASSRVSYMLWYQQKSGTSPKLLIYSTSNLASGVPSRFSGSGSGTFYSLTISSVEAEDAADYYCHQWTSNPCTFGGGTKLEIK
# B3: 抗CD20キメラ抗体 1k1736 (antibody, V domains shown)
# VH: QVQLQQPGAELVKPGASVKMSCKASGYTFTTYNLHWVKQTPGQGLEWIGGIYPGNGDTSYNQKFKVKATLTADKSSNTAYMQLSSLTSEDSAVYYCARWIYYGNYEGTLDYWGQGTSVTVSS
# VL: B1 VL with A13S, H33L, R38K, K44E, S64G, Y71S, F72L, N91T, S92F, H97F
# B4: ヒト化抗CD20モノクローナル抗体 hz1791-ss (antibody, V domains shown)
# VH: QIQLVQSGSELKKPGASVKVSCKASGYTFTNFGVNWVRQAPGKGLKWMGWINTYTGEPSYAQGFTGRFAFSLDASVSTAYLQISSLKAEDTATYFCTRRTNYYGTSYYYAMDYWGQGTTVTVSS
# VL: STVMTQSPDSLAVSLGERATINCKSSQSNSNDVAWYQQKPGQSPKVLIYFASNRYSGVPDRFSGSGYGTDFTLTISSLQAEDVAVYFCQQDYSSPLTFGAGTKLEIK
# notes: also called ss; hz1791-ss32
# B5: 抗ヒトCD20マウスモノクローナル抗体 1K1228 (antibody, V domains shown)
# VH: QVQLQQPGAELVKPGASVKVSCKASGFTFTSYNLHWVKQTPGQGLVWIGAIYPGNGDTSYNQKFRGKATLTADISSSTAYMQLSSLTSEDSAVYYCARYYYGYDAMDYWGQGTSVTVSS
# VL: EIILTQSPTTMAASPGEKITITCSASSSISSYYLRWYQQKPGFSPKVLIYRTSNLASGVPARFSGSGSGTSYSLTIGTMEAEDVATYYCQQGNTVPLTFGSGTKLEIK
# notes: Mouse monoclonal antibody from hybridoma; also called m1228
# B6: 抗ヒトCD20マウスモノクローナル抗体 1k1402 (antibody, V domains shown)
# VH: QVQLQQPGAELVKPGASVKMSCKASGFTFTSYNMHWVKQTPGQGLEWIGGIYPGNGDTSYNQKFKGKATLTADKSSSTAYMQLSSLTSEDSAVYYCARFYYYGSMGAMDYWGQGTSVTVSS
# VL: B1 VL with R38K, Y71S, F72L, S75T, N91T, S92F, H97F, G99A, I105L
# notes: Mouse monoclonal antibody from hybridoma; also called m1402
# B7: 抗ヒトCD20マウスモノクローナル抗体 1k1712 (antibody, V domains shown)
# VH: QVQLQQPGAELVKPGASVKMSCKASGFTFTSYNLHWVKQTPGQGLEWIGAIYPGSGDTSYNQQFKGKATLTADKSSNTAYMQLNSLTSEDSAVYCCARSAMISTGNWYFDYWGQGTTLTVSS
# VL: B1 VL with H33D, R38K, Y71S, F72L, A82T, N91T, S92F, H97F, G99S
# notes: Mouse monoclonal antibody from hybridoma; also called m1712
# B8: 抗ヒトCD20マウスモノクローナル抗体 1k1782 (antibody, V domains shown)
# VH: QVQLQQSGAELAKPGASVKMSCKASGYTFTSYWMHWVKQRPGQGLEWIGYITPSTGYTDYNKKFKDKATLTADRSSSTAYMHLSSLTSEDSAVYYCARSGPYFDVWGAGTTVTVSS
# VL: DILLTQSPAILFVSPGERVSLSCRASQNIGTSIHWYQQRTNGSPRLLIKYASESFSGIPSRFSGSGSGTDFTLSINSVESEDIADYYCQQSNSWPFTFGSGTKLEIK
# notes: Mouse monoclonal antibody from hybridoma; also called m1782
# B9: ヒト化抗CD20モノクローナル抗体 hz1791-ff (antibody, V domains shown)
# VH: B4 VH with R38K, Q62D, G63D, T65K, V76A, T91M
# VL: STVMTQSPSFLSASVGDRVTITCKASQSVSNDVAWYQQKPGQSPKVLIYFASNRYTGVPDRFSGSGYGTDFTLTISSLQAEDVAVYFCQQDYSSPLTFGAGTKLEIK
# notes: also called ff; hz1791-ff34
# B10: ヒト化抗CD20モノクローナル抗体 hz1791-fv (antibody, V domains shown)
# VH: B4 VH with S9P, V20I, R38K, Q62D, G63D, T65K, A92S
# VL: B9 VL
# notes: also called fv; hz1791-fv10
# B11: ヒト化抗CD20モノクローナル抗体 hz1791-sf (antibody, V domains shown)
# VH: B4 VH with R38K, Q62D, G63D, T65K, V76A, T91M
# VL: B4 VL
# notes: also called sf; hz1791-sf43
# Molecular target: T1, ヒトCD20抗原
# Experiment: cell-based or functional assay
row,Binder,CDC 傷害活性 (RC−K8細胞)
1,B1,~25 %
2,B2,~10 %
3,B3,~10 %

# Molecular target: T1, ヒトCD20抗原
# Experiment: Scatchard analysis, Raji cells
row,Binder,binding result
1,B4,binds
2,B5,binds
3,B6,binds
4,B7,binds
5,B8,binds

# Molecular target: T1, ヒトCD20抗原
# Experiment: Scatchard analysis, Raji cells, FITC-labelled secondary antibody fluorescence
row,Binder,Kd
1,B9,< 9.5 nM
2,B10,< 9.5 nM
3,B11,13 nM and 9.5 nM
